Results from paper PMC3858276 (2013).
Where no end group is shown, it is not given here.

T1: phosphorylated SNAP-ADAP fusion protein (ADAP amino acids 570-690) (human, UniProt O15117 570-690, phosphotyrosine (in vitro phosphorylation by Fyn kinase, approx. 90% of each phosphorylation site; sites in Table S1); BG-647 dye on the SNAP-tag)
T1 chain: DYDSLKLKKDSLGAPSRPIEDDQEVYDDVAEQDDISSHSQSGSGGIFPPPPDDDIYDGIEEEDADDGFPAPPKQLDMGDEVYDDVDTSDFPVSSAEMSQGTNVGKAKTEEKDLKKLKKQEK

T2: Fyn SH2 domain without biotin (for MST) (UniProt P06241 149-246)
T2 chain: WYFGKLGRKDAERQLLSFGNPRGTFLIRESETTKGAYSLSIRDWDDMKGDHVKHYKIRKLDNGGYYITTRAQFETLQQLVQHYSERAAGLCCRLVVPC

B1: SLP-76 SH2 domain without biotin (for MST) (domain or fragment)
chain: WYVSYITRPEAEAALRKINQDGTFLVRDSSKKTTTNPYVLMVLYKDKVYNIQIRYQKESQVYLLGTGLRGKEDFLSVSDIIDYFRKMPLLLIDGKNRGSRYQCTLTHAA
B2: phosphorylated SNAP-YEEI fusion (middle T antigen aa 315-331) (peptide)
chain: THQEEEEPQYEEIPIYL
modifications: not fully specified; also: tyrosine phosphorylation in vitro by Fyn, degree not placed
B3: RasaN (N-terminal SH2 domain of Rasa1) without biotin (for MST) (domain or fragment)
chain: WYHGKLDRTIAEERLRQAGKSGSYLIRESDRRPGSFVLSFLSQMNVVNHFRIIAMCGDYYIGGRRFSSLSDLIGYYSHVSCLLKGEKLLYPV
B4: Lck SH2 domain without biotin (for MST) (domain or fragment)
chain: WFFKNLSRKDAERQLLAPGNTHGSFLIRESESTAGSFSLSVRDFDQNQGEVVKHYKIRNLDNGGFYISPRITFPGLHELVRHYTNASDGLCTRLSRPC
B5: Rasa1b (Rasa1 sequence 174-447) without biotin (for MST) (domain or fragment)
chain: TAPPTNQWYHGKLDRTIAEERLRQAGKSGSYLIRESDRRPGSFVLSFLSQMNVVNHFRIIAMCGDYYIGGRRFSSLSDLIGYYSHVSCLLKGEKLLYPVAPPEPVEDRRRVRAILPYTKVPDTDEISFLKGDMFIVHNELEDGWMWVTNLRTDEQGLIVEDLVEEVGREEDPHEGKIWFHGKISKQEAYNLLMTVGQVCSFLVRPSDNTPGDYSLYFRTNENIQRFKICPTPNNQFMMGGRYYNSIGDIIDHYRKEQIVEGYYLKEPVPMQDQE
B6: SH2D1A without biotin (for MST) (natural protein)
chain: MDAVAVYHGKISRETGEKLLLATGLDGSYLLRDSESVPGVYCLCVLYHGYIYTYRVSQTETGSWSAETAPGVHKRYFRKIKNLISAFQKPDQGIVIPLQYPVEKKSSARSTQGTTGIREDPDVCLKAP

Legend:
Test in all cases: MST
[1] = biological target: T1, phosphorylated SNAP-ADAP fusion protein …
[2] = biological target: B5
[3] = biological target: T2, Fyn SH2 domain without biotin (for MST)
[4] = biological target: B3
[5] = biological target: B4
[6] = biological target: B6

Binder | Kd [1] [nM] | other results
B1 | 457 | 
B2 |  | Kd [2]: 189 nM; Kd [3]: 430 nM; Kd [4]: 128 nM; Kd [5]: 595 nM; Kd [6]: 2340 nM
B3 | 142 | 
B4 | 1300 | 
B5 | 152 | 
B6 | 5730 | 
